Molecular target: B/Florida/04/06 full-length HA protein produced from baculovirus in Spodoptera frugiperda insect cells (influenza B virus B/Florida/04/06)
Assay: SEC

Question: Which stoichiometry N does the source give for “B/Florida/04/06 full-length HA protein produced from baculovirus in Spodoptera frugiperda insect cells (natural protein)” here?
Answer: The stoichiometry N was > 9 HA monomers.

From paper PMC3379008
